Test results reported in PMC3785227.

Target: stripped core gp120 (HIV strain YU2), displayed on yeast (HIV-1 strain YU2)
Experiment: flow cytometry on cells

Substance | Kd [nM]
b12, broadly neutralizing anti-gp120 antibody against the CD4 binding site | 0.041
b13, non-neutralizing CD4 binding site-directed anti-gp120 antibody | 0.9
